Biological target: CXC-chemokine receptor 4 (CXCR4) (human (endogenous in MOLM13 and CEM)) (UniProt P61073)
Sequence of UniProt P61073 (P61073 whole entry): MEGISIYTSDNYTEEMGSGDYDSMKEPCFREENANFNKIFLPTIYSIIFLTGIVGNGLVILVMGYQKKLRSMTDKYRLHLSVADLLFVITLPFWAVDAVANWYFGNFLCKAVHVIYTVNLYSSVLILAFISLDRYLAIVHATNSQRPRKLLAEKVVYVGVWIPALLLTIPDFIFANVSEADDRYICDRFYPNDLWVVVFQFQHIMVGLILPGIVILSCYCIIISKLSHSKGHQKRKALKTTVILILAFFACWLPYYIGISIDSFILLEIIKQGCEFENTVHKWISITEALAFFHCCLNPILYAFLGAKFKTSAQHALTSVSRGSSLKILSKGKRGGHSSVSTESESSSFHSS

apoptosis of MOLM13 cells after 4 days with T140-KLA-EVs (annexin V / PI staining, flow cytometry); no difference between T140-KLA-EVs and KLA-EVs in CXCR4-negative AsPC-1 cells: > 50%
Substance: bifunctional T140-KLA peptide, ligated onto the RBCEV surface (T140-KLA-EVs)
